Test results reported in paper doi:10.1101/545921.

Target: AtGAPC1 C149S mutant (Arabidopsis thaliana)
Experiment: dynamic light scattering

AtGAPC1 C149S mutant (enzyme)
stoichiometry N: 4
